In patent US20140086913A1 (Gilead, published 2014):

T1: mouse ECD-DDR1-Fc (mouse; human, UniProt Q03146 22-414)
T1 construct: also called mouse DDR1-ECD; wild-type mouse DDR1-ECD; not shown: human IgG1 Fc of the vector pFuse-hIgG1-Fc1 (Invivogen)
T1 sequence: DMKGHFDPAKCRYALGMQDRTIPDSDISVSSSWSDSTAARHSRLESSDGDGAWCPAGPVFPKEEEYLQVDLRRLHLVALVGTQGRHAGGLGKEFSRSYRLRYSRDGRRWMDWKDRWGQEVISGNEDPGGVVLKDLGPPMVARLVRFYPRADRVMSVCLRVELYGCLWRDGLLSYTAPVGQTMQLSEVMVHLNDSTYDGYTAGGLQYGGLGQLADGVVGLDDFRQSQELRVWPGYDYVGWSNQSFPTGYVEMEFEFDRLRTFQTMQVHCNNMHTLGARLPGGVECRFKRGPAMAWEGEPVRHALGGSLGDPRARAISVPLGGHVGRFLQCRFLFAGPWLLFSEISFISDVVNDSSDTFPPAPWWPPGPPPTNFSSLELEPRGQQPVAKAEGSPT

T2: human DDR2 stably expressed on HEK293 cells (human, UniProt Q16832 22-855)
T2 construct: whole, on cells; also called hDDR2
T2 sequence (looked up): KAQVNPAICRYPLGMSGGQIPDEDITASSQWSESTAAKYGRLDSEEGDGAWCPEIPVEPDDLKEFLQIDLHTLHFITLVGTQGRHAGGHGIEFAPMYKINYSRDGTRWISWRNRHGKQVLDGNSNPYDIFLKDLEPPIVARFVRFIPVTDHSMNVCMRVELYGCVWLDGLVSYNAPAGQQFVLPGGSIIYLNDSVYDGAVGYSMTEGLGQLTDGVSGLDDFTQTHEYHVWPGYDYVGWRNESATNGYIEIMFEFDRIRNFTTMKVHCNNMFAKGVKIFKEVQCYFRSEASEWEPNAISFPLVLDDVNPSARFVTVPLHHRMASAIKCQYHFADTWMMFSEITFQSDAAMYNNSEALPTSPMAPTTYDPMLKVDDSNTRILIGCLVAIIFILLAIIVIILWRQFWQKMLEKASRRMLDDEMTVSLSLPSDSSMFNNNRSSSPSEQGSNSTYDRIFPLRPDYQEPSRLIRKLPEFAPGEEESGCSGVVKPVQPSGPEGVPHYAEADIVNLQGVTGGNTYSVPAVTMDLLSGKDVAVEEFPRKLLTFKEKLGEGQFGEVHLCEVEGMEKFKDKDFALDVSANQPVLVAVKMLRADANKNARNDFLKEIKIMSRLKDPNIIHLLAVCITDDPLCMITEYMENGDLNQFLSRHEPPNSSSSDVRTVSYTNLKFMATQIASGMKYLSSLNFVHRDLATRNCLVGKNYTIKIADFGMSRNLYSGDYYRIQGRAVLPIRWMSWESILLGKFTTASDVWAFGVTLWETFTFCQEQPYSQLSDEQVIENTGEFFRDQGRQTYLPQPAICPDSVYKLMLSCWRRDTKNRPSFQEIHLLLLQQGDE

B1: AB2003 (antibody, V domains shown)
VH: DVHLQESGPDLVKPSQSLSLTCTVTDYSITSGYGWHWIRQFPGNKLEWMGYIHYGGSTKYNSSLKSRISITRDTSKNQFFLQLKSVTTDDTGTYYCATSGNYGFAYWGQGTLVTVSA
VL: DIVLTQSPTSLAVSLGQRATMSCRASESVDDYGTSFMHWYQQKPGQPPKLLIYRASNLESGIPARFSGSGSRADFTLSINPVEPDDVATYYCQQSNEDPFTFGSGTKLEIKR
notes: mouse hybridoma mAb
B2: AB2040 (antibody, V domains shown)
VH: EVMLVESGGGLVKPGGSLKLSCAASGFTFSNYAMSWVRQTPEKRLEWVAKTSSGDTYTYYPDSVKGRFTISRDNAKNTLYLQMTSLRSEDTAIYYCARQDYYGITPWFFDVWGAGTTVTVSS
VL: ENVLTQSPAIMSASPGEKVTMTCRASSSVSSIYLHWYQQKSGASPKLWIYSTSNLASGVPARFSGSGSGTSYSLTITSVEAEDAATYYCQQYSGYPLITFGAGTKLELKR
notes: mouse hybridoma mAb
B3: AB2054 (antibody, V domains shown)
VH: B2 VH
VL: B2 VL
notes: mouse hybridoma mAb
B4: AB2073 (antibody, V domains shown)
VH: B2 VH
VL: B2 VL
notes: mouse hybridoma mAb
B5: AB2019 (antibody, V domains shown)
VH: QVQLKQSGPGLVQPSQSLSITCTVSGFSFTGYGIHWVRQSPGKGLEWLGVIWSGGITDYNAAFISRLSISMDSSKGQVFFKMNSLQANDTAIYYCARRSTTVVADYAMDYWGQGTSVTVSS
VL: SIVMTQTPKFLLVSAGDRVTITCKASQSVSNDVAWYQQKPGQSPKLLIYYASNRYTGVPDRFTGSGYGTDFTFTINTVQAEDLAVYFCQQDYTSPLTFGAGTKLELKR
notes: mouse hybridoma mAb
B6: AB2032 (antibody, V domains shown)
VH: B5 VH
VL: B5 VL
notes: mouse hybridoma mAb

Columns and labels:
[1] = target: DDR1 with a ProLink Tag (PK) in engineered U20S cells (DiscoveRx), Q08345; experiment: cell-based or functional assay
[2] = target: DDR1 endogenously expressed on human cancer cell lines (T47D, HCT-116, A431) (human) (UniProt Q08345); experiment: cell-based or functional assay
[3] = target: human DDR1 (isoform B) stably expressed on HEK293 cells (human) (UniProt Q08345); experiment: flow cytometry, HEK293/hDDR1
mouse ECD-DDR1-Fc = target: T1, mouse ECD-DDR1-Fc; experiment: ELISA, coated antigen
Procedure: (§1) In this study, ELISA was used to determine the affinity of murine anti-DDR1 monoclonal antibodies to the extracellular domain (ECD) of either human or murine DDR1. A 96-well MaxiSorb ELISA plates (Nunc) were coated with 2 μg/mL of one of three purified recombinant tagged proteins: human ECD-DDR1-His protein, human ECD-DDR1-Fc, or mouse ECD-DDR1-Fc overnight at 4° C. The next day, the plates were blocked with 5% bovine serum albumin (BSA, Jackson Immunoresearch) prior to the addition of serially diluted anti-DDR1 monoclonal antibodies. Antibodies were incubated for 1 hr at room temperature. The binding of antibody to the antigen was detected by incubating samples with anti-mouse IgG-HRP (horse radish peroxidase) secondary detection antibody (Jackson Immunoresearch) for 1 hr. After a washing step, 3,3′,5,5″-tetramethylbenzidine (TMB) reagent was added for HRP to produce a colorimetric signal. The reaction was stopped by addition of 1M hydrochloric acid after 2 minutes and measured for absorbance (optical density, OD) at 450λ on a Molecular Devices plate reader. The OD values were plotted against antibody concentration and fitted using a using 4-parameter logistic equation in SoftMax software (Molecular Devices). The apparent affinity constant (KD) was taken from the C-parameter of the equation (y=(A−D)/(1+(x/C)̂B)+D). The apparent affinity constants were summarized (in some cases shown as average values) in Table 10 below. Lower value indicates higher binding affinity of the antibody to the antigen.

[4] = target: T2, human DDR2 stably expressed on HEK293 …; experiment: flow cytometry, HEK293/hDDR2
Procedure: Additional monoclonal antibodies were obtained from individual hybridomas in Example 1 and were characterized for their properties.
Cells were cultured in DMEM with 10% FBS and 0.8 mg/mL hygromycin. When cells reached 60-80% confluence, they were centrifuged at 1,200 rpm for 5 minutes, suspended in FACS buffer (1×PBS, 1% BSA), and aliquoted into a 96-well plate at 1×10⁶ cells per well. The anti-DDR1 monoclonal antibodies or appropriate isotype controls at 2 μg per 1×10⁶ cells were added and incubated at 4° C. for 1 hr. The cells were washed twice with FACS buffer then stained with the anti-IgG-PE secondary antibody at 10 μL per well at 4° C. for 1 hr. The cells were washed again and measured for the MFI values or signals using flow cytometry (LSR Fortessa instrument, BD Biosciences). Background MFI signals from vector-only cells (i.e. no DDR1 or DDR2 expression) was subtracted from those of the cells treated with antibodies. Higher MFI values or signals indicated increased binding or specificity of the anti-DDR1 antibodies to the DDR1 on the cell surface.

[5] = target: DDR1 endogenously expressed on human cancer cell lines (T47D, HCT-116, A431) (human) (UniProt Q08345); experiment: flow cytometry, HCT116 cells
[6] = target: DDR1 endogenously expressed on human cancer cell lines (T47D, HCT-116, A431) (human) (UniProt Q08345); experiment: flow cytometry, T47D cells
[7] = target: T3, DDR1ECD-Fc (R&D Systems, Catalog #2396-DR) (human, UniProt Q08345 21-416); experiment: ELISA, coated antigen, apparent KD
T3 construct: range 21-416; construct as described for the bought immunogen; also called human ECD-DDR1-Fc; Fc-ECD-DR1; not shown: human IgG1, Pro100-Lys330
Procedure: as §1

[8] = target: T4, human ECD-DDR1-His protein (human, UniProt Q08345 21-416); experiment: ELISA, coated antigen, apparent KD
T4 construct: also called huDDR1-ECD-His; DDR1ECD-6Xhis; not shown: His tag
Procedure: as §1

Sequence of human DDR1 (isoform B) stably expressed on HEK293 cells (human) (Q08345 19-913): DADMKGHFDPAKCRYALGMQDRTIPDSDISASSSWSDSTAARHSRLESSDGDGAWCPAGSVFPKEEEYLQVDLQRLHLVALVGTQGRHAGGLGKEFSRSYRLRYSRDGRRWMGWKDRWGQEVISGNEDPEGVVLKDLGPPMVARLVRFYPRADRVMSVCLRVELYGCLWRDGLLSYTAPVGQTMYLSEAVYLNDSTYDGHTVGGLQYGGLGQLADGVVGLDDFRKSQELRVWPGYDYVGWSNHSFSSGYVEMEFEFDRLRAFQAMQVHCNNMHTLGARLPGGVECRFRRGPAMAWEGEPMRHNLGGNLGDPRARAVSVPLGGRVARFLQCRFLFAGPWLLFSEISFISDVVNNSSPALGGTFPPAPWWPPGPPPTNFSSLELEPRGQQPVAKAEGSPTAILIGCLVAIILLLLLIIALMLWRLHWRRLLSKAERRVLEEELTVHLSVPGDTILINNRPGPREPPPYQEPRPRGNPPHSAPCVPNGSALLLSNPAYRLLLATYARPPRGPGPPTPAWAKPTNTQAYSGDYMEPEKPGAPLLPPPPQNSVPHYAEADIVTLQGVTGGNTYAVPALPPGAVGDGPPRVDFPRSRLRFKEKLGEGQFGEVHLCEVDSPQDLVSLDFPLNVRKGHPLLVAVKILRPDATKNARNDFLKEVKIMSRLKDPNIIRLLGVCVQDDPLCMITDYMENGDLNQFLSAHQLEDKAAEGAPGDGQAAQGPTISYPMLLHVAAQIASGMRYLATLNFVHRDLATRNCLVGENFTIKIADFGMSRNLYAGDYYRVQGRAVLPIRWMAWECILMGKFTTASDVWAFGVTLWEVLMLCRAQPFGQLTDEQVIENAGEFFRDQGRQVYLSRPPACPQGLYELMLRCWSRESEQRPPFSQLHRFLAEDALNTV

Row | Mean EC50, DDR1 Tyr513 phosphorylation assay (U20S) [1] | EC50, DDR1 phospho-specific ELISA (T47D) [2] | EC50, cluster formation assay (A431 cells) [2] | Maximal inhibition, DDR1 phospho-specific ELISA (T47D) [2] | NPI of cluster formation at 66 nM (A431 cells) [2] | MFI [3] | binding result (mouse ECD-DDR1-Fc) | MFI [4] | MFI [5] | MFI [6] | Kd [7] | Kd [8] | Binder
1 | 3 nM | 0.42 nM | 2.38 nM | 100% | 128% | 15000 MFI | no binding | 176 MFI | 1410 MFI | 6100 MFI | 0.216 nM | 0.153 nM | B1
2 |  | 0.34 nM |  |  | 3.6% | 13700 MFI | no binding | 308 MFI | 2210 MFI | 2810 MFI | 0.254 nM | 0.115 nM | B2
3 |  | 0.36 nM |  |  | 3.6% | 15500 MFI | no binding | 306 MFI | 1530 MFI | 5930 MFI | 0.31 nM | 0.154 nM | B3
4 |  | 0.45 nM |  |  | -0.2% | 16200 MFI | no binding | 410 MFI | 1690 MFI | 6050 MFI | 0.209 nM | 0.2 nM | B4
5 | 6.6 nM | 0.66 nM |  | 100% | 113% | 12600 MFI |  | 244 MFI | 1490 MFI | 4950 MFI | 0.324 nM | 0.372 nM | B5
6 | 7.72 nM | 0.64 nM | 6.89 nM | 100% | 103% | 13700 MFI |  | 265 MFI | 1900 MFI | 6820 MFI | 0.596 nM | 0.5 nM | B6
